Data on seven sequences can be found in the supplement of paper PMC5998384.

The subject of data set [1] is HeLa Kyoto. In words: solubility in G1/S (NP-40 vs SDS abundance) (log2 ratio); higher = more soluble. The conditions noted are these: cell cycle stage: G1/S.
In data set [2] the test system is HeLa Kyoto. Put plainly: melting temperature (median over replicates), in situ; higher = more thermally stable.
The subject of data set [3] is HeLa Kyoto. In words: solubility change mitosis vs G1/S (difference of NP-40 vs SDS log2 ratios) (log2 ratio difference); higher = more soluble in mitosis.
In data set [4] the test system is HeLa Kyoto. Put plainly: thermal stability score vs G1/S (z-score of summed log2 fold changes over temperatures); higher = more thermally stable than in G1/S.
[5] abbreviates: cell cycle stage: early G1 (4.5 h after nocodazole release).
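Wherever melting temperature (median over replicates), in situ is given: HeLa Kyoto cells synchronized by double thymidine or nocodazole block, proteins quantified by TMT10plex mass spectrometry, three independent biological replicates.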
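Wherever solubility change mitosis vs G1/S (difference of NP-40 vs SDS log2 ratios) is given: synchronized HeLa Kyoto cells (double thymidine block for G1/S, nocodazole release for mitosis), protein amounts in NP-40 versus SDS lysates quantified by mass spectrometry, three biological replicates.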
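Wherever solubility in G1/S (NP-40 vs SDS abundance) is given: HeLa Kyoto cells arrested at G1/S by double thymidine block, proteins quantified by TMT10plex mass spectrometry in mild NP-40 versus SDS extracts, three biological replicates.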
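Wherever thermal stability score vs G1/S (z-score of summed log2 fold changes over temperatures) is given: synchronized HeLa Kyoto cells, proteins quantified by TMT10plex mass spectrometry, three biological replicates, mitosis taken 0.5 h after nocodazole release, G1/S directly after double thymidine block.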

With “MATQADLMELDMAMEPDRKAAVSHWQQQSYLDSGIHSGATTTAPSLSGKGNPEEEDVDTSQVLYEWEQGFSQSFTQEQVADIDGQYAMTRAQRVRAAMFPETLDEGMQIPSTQFDAAHPTNVQRLAEPSQMLKHAVVNLINYQDDAELATRAIPELTKLLNDEDQVVVNKAAVMVHQLSKKEASRHAIMRSPQMVSAIVRTMQNTNDVETARCTAGTLHNLSHHREGLLAIFKSGGIPALVKMLGSPVDSVLFYAITTLHNLLLHQEGAKMAVRLAGGLQKMVALLNKTNVKFLAITTDCLQILAYGNQESKLIILASGGPQALVNIMRTYTYEKLLWTTSRVLKVLSVCSSNKPAIVEAGGMQALGLHLTDPSQRLVQNCLWTLRNLSDAATKQEGMEGLLGTLVQLLGSDDINVVTCAAGILSNLTCNNYKNKMMVCQVGGIEALVRTVLRAGDREDITEPAICALRHLTSRHQEAEMAQNAVRLHYGLPVVVKLLHPPSHWPLIKATVGLIRNLALCPANHAPLREQGAIPRLVQLLVRAHQDTQRRTSMGGTQQQFVEGVRMEEIVEGCTGALHILARDVHNRIVIRGLNTIPLFVQLLYSPIENIQRVAAGVLCELAQDKEAAEAIEAEGATAPLTELLHSRNEGVATYAAAVLFRMSEDKPQDYKKRLSVELTSSLFRTEPMAWNETADLGLDIGAQGEPLGYRQDDPSYRSFHSGGYGQDALGMDPMMEHEMGGHHPGADYPVDGLPDLGHAQDLMDGLPPGDSNQLAWFDTDL [CTNNB1]”, the “solubility in G1/S (log2)” value with HeLa Kyoto [1] was 0.0555. The values for the melting temperature in the data set with HeLa Kyoto [2] (cell cycle stage: G1/S) and with HeLa Kyoto [2] (cell cycle stage: mitosis) were 53.4 °C and 52.4 °C, respectively. Moreover, the “solubility change mitosis (log2)” value in the data set on HeLa Kyoto [3] is -0.093. The thermal stability score with HeLa Kyoto [4] (setting [5]) worked out at 0.0437; with HeLa Kyoto [4] (cell cycle stage: mitosis) it was 0.0622.

On to “MATQAYTELQAAPPPSQPPQAPPQAQPQPPPPPPPAAPQPPQPPTAAATPQPQYVTELQSPQPQAQPPGGQKQYVTELPAVPAPSQPTGAPTPSPAPQQYIVVTVSEGAMRASETVSEASPGSTASQTGVPTQVVQQVQGTQQRLLVQTSVQAKPGHVSPLQLTNIQVPQQALPTQRLVVQSAAPGSKGGQVSLTVHGTQQVHSPPEQSPVQANSSSSKTAGAPTGTVPQQLQVHGVQQSVPVTQERSVVQATPQAPKPGPVQPLTVQGLQPVHVAQEVQQLQQVPVPHVYSSQVQYVEGGDASYTASAIRSSTYSYPETPLYTQTASTSYYEAAGTATQVSTPATSQAVASSGSMPMYVSGSQVVASSTSTGAGASNSSGGGGSGGGGGGGGGGGGGGSGSTGGGGSGAGTYVIQGGYMLGSASQSYSHTTRASPATVQWLLDNYETAEGVSLPRSTLYCHYLLHCQEQKLEPVNAASFGKLIRSVFMGLRTRRLGTRGNSKYHYYGLRIKASSPLLRLMEDQQHMAMRGQPFSQKQRLKPIQKMEGMTNGVAVGQQPSTGLSDISAQVQQYQQFLDASRSLPDFTELDLQGKVLPEGVGPGDIKAFQVLYREHCEAIVDVMVNLQFTLVETLWKTFWRYNLSQPSEAPPLAVHDEAEKRLPKAILVLLSKFEPVLQWTKHCDNVLYQGLVEILIPDVLRPIPSALTQAIRNFAKSLESWLTHAMVNIPEEMLRVKVAAAGAFAQTLRRYTSLNHLAQAARAVLQNTAQINQMLSDLNRVDFANVQEQASWVCRCEDRVVQRLEQDFKVTLQQQNSLEQWAAWLDGVVSQVLKPYQGSAGFPKAAKLFLLKWSFYSSMVIRDLTLRSAASFGSFHLIRLLYDEYMYYLIEHRVAQAKGETPIAVMGEFANLATSLNPLDPDKDEEEEEEEESEDELPQDISLAAGGESPALGPETLEPPAKLARTDARGLFVQALPSS [RFX1]”, for which the “solubility in G1/S (log2)” value in the data set with HeLa Kyoto [1] was -0.00333. Moreover, the results for the melting temperature in the data set with HeLa Kyoto [2] (cell cycle stage: G1/S) and with HeLa Kyoto [2] (cell cycle stage: mitosis) were 53.3 °C and 53 °C, respectively. In addition, the “solubility change mitosis (log2)” value in the data set with HeLa Kyoto [3] was -0.21. In addition, the thermal stability score in the data set on HeLa Kyoto [4] (setting [5]) is -1.2; in the data set on HeLa Kyoto [4] (cell cycle stage: mitosis), -2.15.

As to “MATRSCREKAQKLNEQHQLILSKLLREEDNKYCADCEAKGPRWASWNIGVFICIRCAGIHRNLGVHISRVKSVNLDQWTAEQIQCMQDMGNTKARLLYEANLPENFRRPQTDQAVEFFIRDKYEKKKYYDKNAIAITNISSSDAPLQPLVSSPSLQAAVDKNKLEKEKEKKKEEKKREKEPEKPAKPLTAEKLQKKDQQLEPKKSTSPKKAAEPTVDLLGLDGPAVAPVTNGNTTVPPLNDDLDIFGPMISNPLPATVMPPAQGTPSAPAAATLSTVTSGDLDLFTEQTTKSEEVAKKQLSKDSILSLYGTGTIQQQSTPGVFMGPTNIPFTSQAPAAFQGFPSMGVPVPAAPGLIGNVMGQSPSMMVGMPMPNGFMGNAQTGVMPLPQNVVGPQGGMVGQMGAPQSKFGLPQAQQPQWSLSQMNQQMAGMSISSATPTAGFGQPSSTTAGWSGSSSGQTLSTQLWK [SMAP1]”, the “solubility in G1/S (log2)” value with HeLa Kyoto [1] was -0.0223. The melting temperature was found to be 51.2 °C in the data set with HeLa Kyoto [2] (cell cycle stage: G1/S) and 51.3 °C in the data set with HeLa Kyoto [2] (cell cycle stage: mitosis). Besides, the “solubility change mitosis (log2)” value in the data set with HeLa Kyoto [3] was -0.142. Besides, the thermal stability score in the data set on HeLa Kyoto [4] (setting [5]) is 0.468; in the data set on HeLa Kyoto [4] (cell cycle stage: mitosis), -0.266.

As to “MATRSPGVVISDDEPGYDLDLFCIPNHYAEDLERVFIPHGLIMDRTERLARDVMKEMGGHHIVALCVLKGGYKFFADLLDYIKALNRNSDRSIPMTVDFIRLKSYCNDQSTGDIKVIGGDDLSTLTGKNVLIVEDIIDTGKTMQTLLSLVRQYNPKMVKVASLLVKRTPRSVGYKPDFVGFEIPDKFVVGYALDYNEYFRDLNHVCVISETGKAKYKA [HPRT1]”, the “solubility in G1/S (log2)” value in the data set on HeLa Kyoto [1] was found to be 0.209. Moreover, the melting temperature with HeLa Kyoto [2] (cell cycle stage: G1/S) is 58.5 °C; in the data set on HeLa Kyoto [2] (cell cycle stage: mitosis), 59.7 °C. The “solubility change mitosis (log2)” value in the data set on HeLa Kyoto [3] is -0.113. Besides, the thermal stability score was -0.74 in the data set with HeLa Kyoto [4] (setting [5]) and -3.12 in the data set with HeLa Kyoto [4] (cell cycle stage: mitosis).

For “MATSAPLRSLEEEVTCSICLDYLRDPVTIDCGHVFCRSCTTDVRPISGSRPVCPLCKKPFKKENIRPVWQLASLVENIERLKVDKGRQPGEVTREQQDAKLCERHREKLHYYCEDDGKLLCVMCRESREHRPHTAVLMEKAAQPHREKILNHLSTLRRDRDKIQGFQAKGEADILAALKKLQDQRQYIVAEFEQGHQFLREREEHLLEQLAKLEQELTEGREKFKSRGVGELARLALVISELEGKAQQPAAELMQDTRDFLNRYPRKKFWVGKPIARVVKKKTGEFSDKLLSLQRGLREFQGKLLRDLEYKTVSVTLDPQSASGYLQLSEDWKCVTYTSLYKSAYLHPQQFDCEPGVLGSKGFTWGKVYWEVEVEREGWSEDEEEGDEEEEGEEEEEEEEAGYGDGYDDWETDEDEESLGDEEEEEEEEEEEVLESCMVGVARDSVKRKGDLSLRPEDGVWALRLSSSGIWANTSPEAELFPALRPRRVGIALDYEGGTVTFTNAESQELIYTFTATFTRRLVPFLWLKWPGTRLLLRP [TRIM26]”, the “solubility in G1/S (log2)” value with HeLa Kyoto [1] was -1.13. For the same sequence, the melting temperature in the data set with HeLa Kyoto [2] (cell cycle stage: G1/S) was determined as 51.2 °C. Also, in the data set with HeLa Kyoto [3], the “solubility change mitosis (log2)” value is -0.225. The results for the thermal stability score in the data set on HeLa Kyoto [4] (setting [5]) and with HeLa Kyoto [4] (cell cycle stage: mitosis) were 0.882 and 3.9, respectively.

As for “MATSMAAASGRFESAKSIEERKEQTRNARAEVLRQAKANFEKEERRKELKRLRGEDTWMLPDVNERIEQFSQEHSVKKKKKKDKHSKKAKKEKKKKSKKQKYEKNNESSDSSSSSEDEWVEAVPSQTPDKEKAWKVKDEKSGKDDTQIIKRDEWMTVDFMSVKTVSSSSLKAEKETMRKIEQEKNQALEQSKLMERELNPYWKDGGTGLPPEDCSVSSITKVSVVEDGGLSWLRKSYLRMKEQAEKQSRNFEDIVAERYGSMEIFQSKLEDAEKAASTKEDYRRERWRKPTYSDKAQNCQESRESDLVKYGNSSRDRYATTDTAKNSNNEKFIGDEKDKRPGSLETCRRESNPRQNQEFSFGNLRAKFLRPSDDEELSFHSKGRKFEPLSSSSALVAQGSLCSGFRKPTKNSEERLTSWSRSDGRGDKKHSNQKPSETSTDEHQHVPEDPREKSQDEVLRDDPPKKEHLRDTKSTFAGSPERESIHILSVDEKNKLGAKIIKAEMMGNMELAEQLKVQLEKANKFKETITQIPKKSGVENEDQQEVILVRTDQSGRVWPVNTPGKSLESQGGRRKRQMVSTHEERERVRYFHDDDNLSLNDLVKNEKMGTAENQNKLFMRMASKFMGKTDGDYYTLDDMFVSKAAERERLGEEEENQRKKAIAEHRSLAAQMEKCLYCFDSSQFPKHLIVAIGVKVYLCLPNVRSLTEGHCLIVPLQHHRAATLLDEDIWEEIQMFRKSLVKMFEDKGLDCIFLETNMSMKKQYHMVYECIPLPKEVGDMAPIYFKKAIMESDEEWSMNKKLIDLSSKDIRKSVPRGLPYFSVDFGLHGGFAHVIEDQHKFPHYFGKEIIGGMLDIEPRLWRKGIRESFEDQRKKALQFAQWWKPYDFTKSKNY [CWF19L2]”, in the data set on HeLa Kyoto [1], the “solubility in G1/S (log2)” value is -0.379. Also, the values for the melting temperature with HeLa Kyoto [2] (cell cycle stage: G1/S) and in the data set on HeLa Kyoto [2] (cell cycle stage: mitosis) were 49.4 °C and 49.2 °C, respectively. Besides, in the data set on HeLa Kyoto [3], the “solubility change mitosis (log2)” value came to 0.121. The thermal stability score is 0.398 in the data set with HeLa Kyoto [4] (setting [5]) and 2.26 in the data set with HeLa Kyoto [4] (cell cycle stage: mitosis).

As for “MATSVGHRCLGLLHGVAPWRSSLHPCEITALSQSLQPLRKLPFRAFRTDARKIHTAPARTMFLLRPLPILLVTGGGYAGYRQYEKYRERELEKLGLEIPPKLAGHWEVALYKSVPTRLLSRAWGRLNQVELPHWLRRPVYSLYIWTFGVNMKEAAVEDLHHYRNLSEFFRRKLKPQARPVCGLHSVISPSDGRILNFGQVKNCEVEQVKGVTYSLESFLGPRMCTEDLPFPPAASCDSFKNQLVTREGNELYHCVIYLAPGDYHCFHSPTDWTVSHRRHFPGSLMSVNPGMARWIKELFCHNERVVLTGDWKHGFFSLTAVGATNVGSIRIYFDRDLHTNSPRHSKGSYNDFSFVTHTNREGVPMRKGEHLGEFNLGSTIVLIFEAPKDFNFQLKTGQKIRFGEALGSL [PISD]”, the “solubility in G1/S (log2)” value in the data set on HeLa Kyoto [1] is -0.127. Moreover, the melting temperature in the data set on HeLa Kyoto [2] (cell cycle stage: G1/S) was found to be 51.7 °C; in the data set on HeLa Kyoto [2] (cell cycle stage: mitosis), 50.9 °C. Moreover, in the data set with HeLa Kyoto [3], the “solubility change mitosis (log2)” value is -0.00593. In addition, the figures for the thermal stability score with HeLa Kyoto [4] (setting [5]) and with HeLa Kyoto [4] (cell cycle stage: mitosis) were -1.35 and -0.739, respectively.
